# Reference: article PMC3929958 (Molecular cell, 2013)
# Read-outs that look alike come from different tables or passages of the source.
# Legend:
# [1] = target: the molecule itself; assay: fluorescence polarisation
# [2] = target: the molecule itself; assay: fluorescence polarisation; remark: listed apart in the source
# [3] = target: the molecule itself; assay: fluorescence polarisation; remark: listed apart in the source
# SEC = target: the molecule itself; assay: SEC
# SEC-MALS = target: the molecule itself; assay: SEC-MALS
protein,measurement,setting,value
Bcl10 R36E/E50R/D51R triple mutant (natural protein) MEPTAPSLTEEDLTEVKKDALENLRVYLAEKIIAEEHFDHLRAKKILSRRRTEEISARTSSRKRAGKLLDYLQENPKGLDTLVESIRREKTQNFLIQKITDEVLKLRNIKLEHLKGLKCSSCEPFPDGATNNLSRSNSDESNFSEKLRASTVMYHPEGESSTTPFFSTNSSLNLPVLEVGRTENTIFSSTTLPRPGDPGAPPLPPDLQLEEEGTCANSSEMFLPLRSRTVSRQ,polymerization activity relative to WT Bcl10,[1],~50%
"Alexa 488-labeled Bcl10 (C29A/C57A double mutant), MBP removed by TEV (natural protein, human, UniProt O95999 1-233, looked up, Alexa 488 label (site not stated)) MEPTAPSLTEEDLTEVKKDALENLRVYLAEKIIAERHFDHLRAKKILSREDTEEISARTSSRKRAGKLLDYLQENPKGLDTLVESIRREKTQNFLIQKITDEVLKLRNIKLEHLKGLKCSSCEPFPDGATNNLSRSNSDESNFSEKLRASTVMYHPEGESSTTPFFSTNSSLNLPVLEVGRTENTIFSSTTLPRPGDPGAPPLPPDLQLEEEGTCANSSEMFLPLRSRTVSRQ",Kd,[2],4.3 µM
same,Kd,[3],0.8 µM
"CARMA1 (8–302) (domain or fragment, human, UniProt Q9BXL7 8-302, looked up) MDDYMETLKDEEDALWENVECNRHMLSRYINPAKLTPYLRQCKVIDEQDEDEVLNAPMLPSKINRAGRLLDILHTKGQRGYVVFLESLEFYYPELYKLVTGKEPTRRFSTIVVEEGHEGLTHFLMNEVIKLQQQMKAKDLQRCELLARLRQLEDEKKQMTLTRVELLTFQERYYKMKEERDSYNDELVKVKDDNYNLAMRYAQLSEEKNMAVMRSRDLQLEIDQLKHRLNKMEEECKLERNQSLKLKNDIENRPKKEQVLELERENEMLKTKNQELQSIIQAGKRSLPDSDKAIL",stoichiometry N,SEC,> 100
"CARMA1 (8–172) (domain or fragment, human, UniProt Q9BXL7 8-172, looked up) MDDYMETLKDEEDALWENVECNRHMLSRYINPAKLTPYLRQCKVIDEQDEDEVLNAPMLPSKINRAGRLLDILHTKGQRGYVVFLESLEFYYPELYKLVTGKEPTRRFSTIVVEEGHEGLTHFLMNEVIKLQQQMKAKDLQRCELLARLRQLEDEKKQMTLTRVE",stoichiometry N,SEC-MALS,3
